Data on eight variants can be found in IntAct's records for PubMed 15486100.

The chains are these.
B1: Transcription factor PIF4 (Arabidopsis thaliana (Mouse-ear cress)), Q8W2F3-2 (parent)
chain: MEHQGWSFEENYSLSTNRRSIRPQDELVELLWRDGQVVLQSQTHREQTQTQKQDHHEEALRSSTFLEDQETVSWIQYPPDEDPFEPDDFSSHFFSTMDPLQRPTSETVKPKSSPEPPQVMVKPKACPDPPPQVMPPPKFRLTNSSSGIRETEMEQYSVTTVGPSHCGSNPSQNDLDVSMSHDRSKNIEEKLNPNASSSSGGSSGCSFGKDIKEMASGRCITTDRKRKRINHTDESVSLSDAIGNKSNQRSGSNRRSRAAEVHNLSERVLHRFVYIIYNI
B2: Transcription factor PIF3 (Arabidopsis thaliana (Mouse-ear cress)), O80536 (parent)
chain: MPLFELFRLTKAKLESAQDRNPSPPVDEVVELVWENGQISTQSQSSRSRNIPPPQANSSRAREIGNGSKTTMVDEIPMSVPSLMTGLSQDDDFVPWLNHHPSLDGYCSDFLRDVSSPVTVNEQESDMAVNQTAFPLFQRRKDGNESAPAASSSQYNGFQSHSLYGSDRARDLPSQQTNPDRFTQTQEPLITSNKPSLVNFSHFLRPATFAKTTNNNLHDTKEKSPQSPPNVFQTRVLGAKDSEDKVLNESVASATPKDNQKACLISEDSCRKDQESEKAVVCSSVGSGNSLDGPSESPSLSLKRKHSNIQDIDCHSEDVEEESGDGRKEAGPSRTGLGSKRSRSAEVHNLSERRRRDRINEKMRALQELIPNCNKVDKASMLDEAIEYLKSLQLQVQIMSMASGYYLPPAVMFPPGMGHYPAAAAAMAMGMGMPYAMGLPDLSRGGSSVNHGPQFQVSGMQQQPVAMGIPRVSGGGIFAGSSTIGNGSTRDLSGSKDQTTTNNNSNLKPIKRKQGSSDQFCGSS
B3: Transcription factor PIF6 (Arabidopsis thaliana (Mouse-ear cress)), Q8L5W7 (parent)
chain: MMFLPTDYCCRLSDQEYMELVFENGQILAKGQRSNVSLHNQRTKSIMDLYEAEYNEDFMKSIIHGGGGAITNLGDTQVVPQSHVAAAHETNMLESNKHVDDSETLKASSSKRMMVDYHNRKKIKFIPPDEQSVVADRSFKLGFDTSSVGFTEDSEGSMYLSSSLDDESDDARPQVPARTRKALVKRKRNAEAYNSPERNQRNDINKKMRTLQNLLPNSHKDDNESMLDEAINYMTNLQLQVQMMTMGNRFVTPSMMMPLGPNYSQMGLAMGVGMQMGEQQFLPAHVLGAGLPGINDSADMLRFLNHPGLMPMQNSAPFIPTENCSPQSVPPSCAAFPNQIPNPNSLSNLDGATLHKKSRKTNR
B4: Transcription factor PIF5 (Arabidopsis thaliana (Mouse-ear cress)), Q84LH8 (parent)
chain: MEQVFADWNFEDNFHMSTNKRSIRPEDELVELLWRDGQVVLQSQARREPSVQVQTHKQETLRKPNNIFLDNQETVQKPNYAALDDQETVSWIQYPPDDVIDPFESEFSSHFFSSIDHLGGPEKPRTIEETVKHEAQAMAPPKFRSSVITVGPSHCGSNQSTNIHQATTLPVSMSDRSKNVEERLDTSSGGSSGCSYGRNNKETVSGTSVTIDRKRKHVMDADQESVSQSDIGLTSTDDQTMGNKSSQRSGSTRRSRAAEVHNLSERRRRDRINERMKALQELIPHCSRTDKASILDEAIDYLKSLQMQLQVMWMGSGMAAAAAAAASPMMFPGVQSSPYINQMAMQSQMQLSQFPVMNRSAPQNHPGLVCQNPVQLQLQAQNQILSEQLARYMGGIPQMPPAGNQMQTVQQQPADMLGFGSPAGPQSQLSAPATTDSLHMGKIG

Variants of B1 are the subject of one test. The conditions noted are these: with phyb_arath PHYB.
Regarding MEHQGWSFEENYSLSTNRRSIRPQDELVALLWRDAQVVLQSQTHREQTQTQKQDHHEEALRSSTFLEDQETVSWIQYPPDEDPFEPDDFSSHFFSTMDPLQRPTSETVKPKSSPEPPQVMVKPKACPDPPPQVMPPPKFRLTNSSSGIRETEMEQYSVTTVGPSHCGSNPSQNDLDVSMSHDRSKNIEEKLNPNASSSSGGSSGCSFGKDIKEMASGRCITTDRKRKRINHTDESVSLSDAIGNKSNQRSGSNRRSRAAEVHNLSERVLHRFVYIIYNI [E29A;G35A], the “effect of a mutation on the interaction” value is “decreasing interaction”. On the same count and under the same terms, the result for MEHQGWSFEENYSLSTNRRSIRPQDELVELLWRDAQVVLQSQTHREQTQTQKQDHHEEALRSSTFLEDQETVSWIQYPPDEDPFEPDDFSSHFFSTMDPLQRPTSETVKPKSSPEPPQVMVKPKACPDPPPQVMPPPKFRLTNSSSGIRETEMEQYSVTTVGPSHCGSNPSQNDLDVSMSHDRSKNIEEKLNPNASSSSGGSSGCSFGKDIKEMASGRCITTDRKRKRINHTDESVSLSDAIGNKSNQRSGSNRRSRAAEVHNLSERVLHRFVYIIYNI [G35A] reads “decreasing interaction”.

Variants of B2 are the subject of the next test. The conditions noted are these: with phyb_arath PHYB.
For the variant MPLFELFRLTKAKLESAQDRNPSPPVDEVVALVWENAQISTQSQSSRSRNIPPPQANSSRAREIGNGSKTTMVDEIPMSVPSLMTGLSQDDDFVPWLNHHPSLDGYCSDFLRDVSSPVTVNEQESDMAVNQTAFPLFQRRKDGNESAPAASSSQYNGFQSHSLYGSDRARDLPSQQTNPDRFTQTQEPLITSNKPSLVNFSHFLRPATFAKTTNNNLHDTKEKSPQSPPNVFQTRVLGAKDSEDKVLNESVASATPKDNQKACLISEDSCRKDQESEKAVVCSSVGSGNSLDGPSESPSLSLKRKHSNIQDIDCHSEDVEEESGDGRKEAGPSRTGLGSKRSRSAEVHNLSERRRRDRINEKMRALQELIPNCNKVDKASMLDEAIEYLKSLQLQVQIMSMASGYYLPPAVMFPPGMGHYPAAAAAMAMGMGMPYAMGLPDLSRGGSSVNHGPQFQVSGMQQQPVAMGIPRVSGGGIFAGSSTIGNGSTRDLSGSKDQTTTNNNSNLKPIKRKQGSSDQFCGSS [E31A;G37A], the “effect of a mutation on the interaction” value is listed as “decreasing interaction”.

Another test covers variants of B3. The conditions noted are these: with phyb_arath PHYB.
On to MMFLPTDYCCRLSDQEYMALVFENAQILAKGQRSNVSLHNQRTKSIMDLYEAEYNEDFMKSIIHGGGGAITNLGDTQVVPQSHVAAAHETNMLESNKHVDDSETLKASSSKRMMVDYHNRKKIKFIPPDEQSVVADRSFKLGFDTSSVGFTEDSEGSMYLSSSLDDESDDARPQVPARTRKALVKRKRNAEAYNSPERNQRNDINKKMRTLQNLLPNSHKDDNESMLDEAINYMTNLQLQVQMMTMGNRFVTPSMMMPLGPNYSQMGLAMGVGMQMGEQQFLPAHVLGAGLPGINDSADMLRFLNHPGLMPMQNSAPFIPTENCSPQSVPPSCAAFPNQIPNPNSLSNLDGATLHKKSRKTNR [E19A;G25A], for which the “effect of a mutation on the interaction” value is recorded as “decreasing interaction”.

The variants in another test derive from B4. The conditions noted are these: with phyb_arath PHYB.
On to MEQVFADWNFEDNFHMSTNKRSIRPEDELVELLWRDGAVVLQSQARREPSVQVQTHKQETLRKPNNIFLDNQETVQKPNYAALDDQETVSWIQYPPDDVIDPFESEFSSHFFSSIDHLGGPEKPRTIEETVKHEAQAMAPPKFRSSVITVGPSHCGSNQSTNIHQATTLPVSMSDRSKNVEERLDTSSGGSSGCSYGRNNKETVSGTSVTIDRKRKHVMDADQESVSQSDIGLTSTDDQTMGNKSSQRSGSTRRSRAAEVHNLSERRRRDRINERMKALQELIPHCSRTDKASILDEAIDYLKSLQMQLQVMWMGSGMAAAAAAAASPMMFPGVQSSPYINQMAMQSQMQLSQFPVMNRSAPQNHPGLVCQNPVQLQLQAQNQILSEQLARYMGGIPQMPPAGNQMQTVQQQPADMLGFGSPAGPQSQLSAPATTDSLHMGKIG [Q38A], for which the “effect of a mutation on the interaction” value was “decreasing interaction”.

For the variant MEQVFADWNFEDNFHMSTNKRSIRPEDELVALLWRDGQVVLQSQARREPSVQVQTHKQETLRKPNNIFLDNQETVQKPNYAALDDQETVSWIQYPPDDVIDPFESEFSSHFFSSIDHLGGPEKPRTIEETVKHEAQAMAPPKFRSSVITVGPSHCGSNQSTNIHQATTLPVSMSDRSKNVEERLDTSSGGSSGCSYGRNNKETVSGTSVTIDRKRKHVMDADQESVSQSDIGLTSTDDQTMGNKSSQRSGSTRRSRAAEVHNLSERRRRDRINERMKALQELIPHCSRTDKASILDEAIDYLKSLQMQLQVMWMGSGMAAAAAAAASPMMFPGVQSSPYINQMAMQSQMQLSQFPVMNRSAPQNHPGLVCQNPVQLQLQAQNQILSEQLARYMGGIPQMPPAGNQMQTVQQQPADMLGFGSPAGPQSQLSAPATTDSLHMGKIG [E31A], the “effect of a mutation on the interaction” value is recorded as “decreasing interaction”. Still for that read-out and setting: the result for MEQVFADWNFEDNFHMSTNKRSIRPEDELVEALWRDGQVVLQSQARREPSVQVQTHKQETLRKPNNIFLDNQETVQKPNYAALDDQETVSWIQYPPDDVIDPFESEFSSHFFSSIDHLGGPEKPRTIEETVKHEAQAMAPPKFRSSVITVGPSHCGSNQSTNIHQATTLPVSMSDRSKNVEERLDTSSGGSSGCSYGRNNKETVSGTSVTIDRKRKHVMDADQESVSQSDIGLTSTDDQTMGNKSSQRSGSTRRSRAAEVHNLSERRRRDRINERMKALQELIPHCSRTDKASILDEAIDYLKSLQMQLQVMWMGSGMAAAAAAAASPMMFPGVQSSPYINQMAMQSQMQLSQFPVMNRSAPQNHPGLVCQNPVQLQLQAQNQILSEQLARYMGGIPQMPPAGNQMQTVQQQPADMLGFGSPAGPQSQLSAPATTDSLHMGKIG [L32A] reads “decreasing interaction”; that for MEQVFADWNFEDNFHMSTNKRSIRPEDELVELLWRDAQVVLQSQARREPSVQVQTHKQETLRKPNNIFLDNQETVQKPNYAALDDQETVSWIQYPPDDVIDPFESEFSSHFFSSIDHLGGPEKPRTIEETVKHEAQAMAPPKFRSSVITVGPSHCGSNQSTNIHQATTLPVSMSDRSKNVEERLDTSSGGSSGCSYGRNNKETVSGTSVTIDRKRKHVMDADQESVSQSDIGLTSTDDQTMGNKSSQRSGSTRRSRAAEVHNLSERRRRDRINERMKALQELIPHCSRTDKASILDEAIDYLKSLQMQLQVMWMGSGMAAAAAAAASPMMFPGVQSSPYINQMAMQSQMQLSQFPVMNRSAPQNHPGLVCQNPVQLQLQAQNQILSEQLARYMGGIPQMPPAGNQMQTVQQQPADMLGFGSPAGPQSQLSAPATTDSLHMGKIG [G37A], “decreasing interaction”.
